Laboratory results taken from patent US20250340613A1 (JOINT STOCK COMPANY BIOCAD, published 2025).

What was measured:
[1] = molecular target: T1, biotinylated peptide [NH2]…JQS[CH2CH2]biotin comprising a fragment of the human CD20 sequence (human, [NH2] at the N-terminus; [CH2CH2]biotin at the C-terminus; the letter J at position 20 is printed so and is not a standard residue code); assay: BLI Octet RED 384; biotinylated peptide on SAX sensor, antibody in solution; 1:1 global fit
T1 construct: also called CD20 peptide
Experimental: In the case of the biotinylated CD20 peptide, the peptide at a concentration of 5 μg/ml was immobilized on the surface of SAX sensors (High Precision Streptavidin (SAX) biosensors, ForteBio) for 120 seconds. The baseline was recorded in a 1×KB solution for 120 seconds. The sensors containing the loaded peptide were immersed into wells containing the antibody solution (analyte) in 1×KB for 15 seconds. Measurements were carried out for solutions with analyte (antibodies in the case of CD20 peptide) at concentrations of 150 μg/ml, 75 μg/ml, 37.5 μg/ml. Complex dissociation was recorded in 1×KB for 120 seconds.
All measurements were carried out at 30° C., orbital mixing speed was 1,000 revolutions per minute.
To obtain numerical values of kinetic constants (kₒₙ is the on/association rate constant, kdis is the dissociation rate constant, KD is the equilibrium dissociation constant or affinity constant), the resulting sensograms were processed according to the 1:1 interaction model using Global Fit (selection of one set of kon, kdis, KD constants to analyze several sensograms of different concentrations) of the ForteBio Octet Data Analysis 9.0 software.

[2] = molecular target: T2, hIL4R-His, Interleukin-4 receptor subunit alpha (Homo sapiens) aa 27-227 (Homo sapiens, UniProt P24394 27-227); assay: BLI Octet RED 384; antibody on ProA sensor, antigen 30 ug/ml
T2 construct: range 27-227; not shown: His tag as the name implies
T2 sequence (looked up): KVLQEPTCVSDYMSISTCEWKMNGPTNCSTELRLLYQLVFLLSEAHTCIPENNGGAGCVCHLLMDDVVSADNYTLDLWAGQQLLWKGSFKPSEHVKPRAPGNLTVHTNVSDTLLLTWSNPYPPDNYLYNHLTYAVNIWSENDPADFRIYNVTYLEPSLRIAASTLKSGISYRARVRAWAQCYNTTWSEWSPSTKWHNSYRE

[3] = molecular target: T3, Her3-H6F, Receptor tyrosine-protein kinase erbB-3 (Homo sapiens) aa 21-643 (Homo sapiens, UniProt P21860 21-643); assay: as above
T3 construct: not shown: His and FLAG tags implied by the name 'H6F'

[4] = molecular target: T4, extracellular domain of the human CSF1R protein (hCSF1R_His) (Homo sapiens, UniProt P07333 20-512); assay: as above
T4 construct: range 20-512; Molecular weight 57.4 kDa; made in CHO cells; also called hCSF1_His; not shown: C-terminal His and FLAG tags
T4 sequence (P07333 20-512 limits assumed): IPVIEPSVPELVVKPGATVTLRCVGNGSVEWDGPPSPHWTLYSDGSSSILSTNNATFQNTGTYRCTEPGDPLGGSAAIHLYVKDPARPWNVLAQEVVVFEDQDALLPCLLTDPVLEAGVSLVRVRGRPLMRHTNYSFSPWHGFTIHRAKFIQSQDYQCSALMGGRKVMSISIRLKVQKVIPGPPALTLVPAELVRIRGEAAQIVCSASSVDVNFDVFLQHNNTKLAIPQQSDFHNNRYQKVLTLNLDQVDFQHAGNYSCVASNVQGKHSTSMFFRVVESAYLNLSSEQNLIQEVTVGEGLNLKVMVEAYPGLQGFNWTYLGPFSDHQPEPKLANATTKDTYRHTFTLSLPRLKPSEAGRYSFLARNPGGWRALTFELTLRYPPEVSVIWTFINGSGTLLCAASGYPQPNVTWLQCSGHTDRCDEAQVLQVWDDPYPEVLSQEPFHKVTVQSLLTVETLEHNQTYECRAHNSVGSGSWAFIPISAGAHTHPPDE

T1 sequence (peptide, as listed by the source): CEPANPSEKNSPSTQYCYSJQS
T3 sequence (P21860 21-643 limits assumed): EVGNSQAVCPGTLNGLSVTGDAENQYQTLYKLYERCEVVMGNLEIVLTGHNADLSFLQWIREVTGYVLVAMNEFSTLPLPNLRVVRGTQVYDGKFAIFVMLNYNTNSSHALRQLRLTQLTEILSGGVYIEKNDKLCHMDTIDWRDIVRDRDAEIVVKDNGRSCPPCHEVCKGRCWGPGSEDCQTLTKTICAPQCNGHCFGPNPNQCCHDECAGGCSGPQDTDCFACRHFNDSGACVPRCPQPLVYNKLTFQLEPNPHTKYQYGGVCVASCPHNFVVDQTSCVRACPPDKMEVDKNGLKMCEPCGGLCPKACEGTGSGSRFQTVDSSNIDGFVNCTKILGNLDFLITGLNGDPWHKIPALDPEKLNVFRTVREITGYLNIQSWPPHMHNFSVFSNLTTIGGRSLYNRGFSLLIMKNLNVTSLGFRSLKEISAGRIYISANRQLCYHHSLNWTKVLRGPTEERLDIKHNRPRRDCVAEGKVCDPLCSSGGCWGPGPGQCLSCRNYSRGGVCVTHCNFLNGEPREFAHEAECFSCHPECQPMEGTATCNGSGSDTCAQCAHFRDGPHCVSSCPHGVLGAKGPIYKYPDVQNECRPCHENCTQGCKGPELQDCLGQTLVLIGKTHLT

- Kd [1]: 1270 nM
- koff [1]: 0.238 s⁻¹
- kon [1]: 188000 M⁻¹ s⁻¹
- binding result [2]: no binding (tested: 1154 nM)
- binding result [3]: no binding (tested: 420.8 nM)
- binding result [4]: no binding (tested: 522.5 nM)
B1: 02-004, bivalent bispecific chimeric antibody that specifically binds to PD1 and CD20 (bispecific antibody, human IgG1, kappa, L234A L235A)
heavy 1: QVQLVQSGGGLVQPGGSLRLSCAASGFTFSSYWMYWVRQVPGKGLEWVSAIDTGGGRTYYADSVKGRFAISRVNAKNTMYLQMNSLRAEDTAVYYCARDEGGGTGWGVLKDWPYGLDAWGQGTLVTVSSASTKGPSVFPLAPSSKSTSGGTAALGCLVKDYFPEPVTVSWNSGALTSGVHTFPAVLQSSGLYSLSSVVTVPSSSLGTQTYICNVNHKPSNTKVDKRVEPKSCDKTHTCPPCPAPEAAGGPSVFLFPPKPKDTLYITREPEVTCVVVDVSHEDPEVKFNWYVDGVEVHNAKTKPREEQYNSTYRVVSVLTVLHQDWLNGKEYKCKVSNKALPAPIEKTISKAKGQPREPQVCTLPPSRDELTKNQVSLSCAVKGFYPSDIAVEWESNGQPENNYKTTPPVLDSDGSFFLVSKLTVDKSRWQQGNVFSCSVMHEALHNHYTQKSLSLSPGK
light 1: QPVLTQPLSVSVALGQTARITCGGNNIGSKNVHWYQQKPGQAPVLVIYRDSNRPSGIPERFSGSNSGNTATLTISRAQAGDEADYYCQVWDSSTAVFGTGTKLTVLQRTVAAPSVFIFPPSDEQLKSGTASVVCLLNNFYPREAKVQWKVDNALQSGNSQESVTEQDSKDSTYSLSSTLTLSKADYEKHKVYACEVTHQGLSSPVTKSFNRGEC
heavy 2: not shown
light 2: DIQMTQSPSSLSASVGDRVTITCRASSSVSYMHWYQQKPGKAPKPLIYAPSNLASGVPSRFSGSGSGTDFTLTISSLQPEDFATYYCQQWSFNPPTFGQGTKVEIKQRQVKPEAWLSSGPSPGPGRLQLVCHVSGFYPKPVWVMWMRGEQEQQGTQLGDILPNANWTWYLRATLDVADGEAAGLSCRVKHSSLEGQDIILYWRGSC
notes: Produced in CHO cells
